Experimental data from US7422862B2, “Methods for identifying modulators of apoptosis” (The Burnham Institute, priority 2001, dated 2008).

Columns and labels:
[1] = molecular target: T1, Bcl-B (Homo sapiens, UniProt Q9HD36); assay: Co-immunoprecipitation with Bcl-2 family proteins in HEK293T cells; format: binding
T1 construct: expressed in transfected cells; host or cells: HEK293T
T1 sequence (Q9HD36 1-204): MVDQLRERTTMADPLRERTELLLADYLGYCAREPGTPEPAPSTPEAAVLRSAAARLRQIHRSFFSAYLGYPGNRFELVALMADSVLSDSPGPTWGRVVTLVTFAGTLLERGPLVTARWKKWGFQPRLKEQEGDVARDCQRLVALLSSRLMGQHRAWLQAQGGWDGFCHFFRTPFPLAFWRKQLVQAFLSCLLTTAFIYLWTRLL
Description: (§1) (A) HEK293T cells were transfected with pcDNA3-myc plasmids encoding Bax or other Bcl-2 family proteins with GFP, GFP-HN, or GFP-HN(C8P). Cell lysates were immunoprecipitated with polyclonal anti-GFP antibody. The immunoprecipitates or the lysates were blotted with anti-myc or anti-GFP antibodies, respectively. The slower migrating form of GFP seen in lane 1 (asterisk)represents an alternative form of GFP produced from the wild-type (control) p-EGFP-Cl plasmid (http://clonotech.com). (B) Testes of three-week-old mice were homogenized in lysis buffer (0.1% Triton X-100, 50 mM Tris-HCl, pH7.5, 1 mM EDTA, plus protease inhibitor cocktail). The lysates were immunoprecipitated with control rabbit serum or polyclonal anti-mouse Bax antibody. The immunoprecipitates or the lysates were subjected to electrophoresis in Tris/Tricine gels (16% T, 3% C), electroblotted to PVDF membrane, and immunoblotted with polyclonal anti-HN antibody or monoclonal anti-Bax antibody 6A7 (Trevigen). (C) The affinity (Kd) of Bax/HN interaction was measured by fluorescence polarization assay, using various concentrations of purified recombinant Bax and 40 nM rhodamine-conjugated HN peptide. Control peptide from CD40 is also shown (mean +Std Dev; n=3).
(§2) Furthermore, multiple Bcl-2 family proteins were surveyed for interactions with Humanin by coimmunoprecipitation experiments (FIG. 5A).
(§3) Immunoblotting and immunoprecipitations were performed as follows. Immunoblotting was performed as described previously (Fields and Song, Nature 340:245-246 (1989)). For co-immunoprecipitations, cells were cultured in 50 uM […] Valine Alanine Asparate fluoromethyl-ketone (zVAD-fmk) to prevent apoptosis. Cells were suspended in lysis buffer (50 mM Tris-HCl, pH7.4; 150 mM NaCl; 20 mM EDTA; 50 mM NaF; 0.5% NP-40; 0.1 mM Na3VO4; 20 ug/ml Leupeptin; 20 ug/ml Aprotinin; 1 mM DTT; and 1 mM PMSF). Lysates (200 ul diluted in 1 ml final volume of lysis buffer) were cleared by incubation with 15 ul of protein G-Sepharose 4B (Zymed) and then incubated with 15 ul of polyclonal antibody and 15 ul of protein G at 4° C. overnight. Beads were then washed 4 times with 1.5 mls lysis buffer before boiling in Laemmli sample buffer and performing SDS-PAGE/immunoblotting.

[2] = molecular target: T2, Bok (Homo sapiens, UniProt Q9UMX3); assay: as above; format: binding
T2 construct: expressed in transfected cells; host or cells: HEK293T
T2 sequence (Q9UMX3 1-212): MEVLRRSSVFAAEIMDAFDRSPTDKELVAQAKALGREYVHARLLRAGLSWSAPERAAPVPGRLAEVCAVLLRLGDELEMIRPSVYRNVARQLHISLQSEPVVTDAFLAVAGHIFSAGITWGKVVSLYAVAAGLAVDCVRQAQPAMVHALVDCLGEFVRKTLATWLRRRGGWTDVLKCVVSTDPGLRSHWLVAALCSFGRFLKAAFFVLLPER
Description: as §1, §2, §3

[3] = molecular target: Bcl-2 (Homo sapiens, UniProt P10415); assay: as above; format: binding
Chain of Bcl-2 (P10415 whole entry, species assumed): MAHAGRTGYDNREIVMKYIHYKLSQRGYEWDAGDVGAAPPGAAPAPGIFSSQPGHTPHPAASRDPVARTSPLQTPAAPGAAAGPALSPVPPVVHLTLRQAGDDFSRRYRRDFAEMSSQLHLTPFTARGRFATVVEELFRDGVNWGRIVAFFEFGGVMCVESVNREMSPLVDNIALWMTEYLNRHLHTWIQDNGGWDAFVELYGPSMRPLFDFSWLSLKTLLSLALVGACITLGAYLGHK
Description: as §1, §2, §3

[4] = molecular target: Mcl-1 (Homo sapiens, UniProt Q07820); assay: as above; format: binding
Chain of Mcl-1 (Q07820 whole entry, species assumed): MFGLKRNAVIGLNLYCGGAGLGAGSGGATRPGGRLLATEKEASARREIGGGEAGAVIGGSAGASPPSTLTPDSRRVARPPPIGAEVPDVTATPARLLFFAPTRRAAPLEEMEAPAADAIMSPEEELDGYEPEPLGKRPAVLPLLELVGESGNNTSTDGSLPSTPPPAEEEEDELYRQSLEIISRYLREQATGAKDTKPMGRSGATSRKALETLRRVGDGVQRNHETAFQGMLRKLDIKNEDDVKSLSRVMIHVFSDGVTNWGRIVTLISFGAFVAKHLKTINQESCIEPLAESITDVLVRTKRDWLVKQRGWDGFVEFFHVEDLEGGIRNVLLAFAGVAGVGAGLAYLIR
Description: as §1, §2, §3

[5] = molecular target: Bcl-XL (Homo sapiens, UniProt Q07817); assay: as above; format: binding
Chain of Bcl-XL (Q07817 whole entry, species assumed): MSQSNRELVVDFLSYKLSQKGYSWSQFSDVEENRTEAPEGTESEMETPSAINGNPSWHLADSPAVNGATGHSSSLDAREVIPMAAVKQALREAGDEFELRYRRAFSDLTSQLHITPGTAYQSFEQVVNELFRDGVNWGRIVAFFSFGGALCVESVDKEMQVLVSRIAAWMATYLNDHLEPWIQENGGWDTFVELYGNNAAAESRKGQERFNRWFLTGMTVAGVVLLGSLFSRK
Description: as §1, §2, §3

[6] = molecular target: purified recombinant Bax (Homo sapiens, UniProt Q07812); assay: Isolated mitochondria: Bax association and cytochrome c release assay; format: biochemical; conditions: 100 μM peptide preincubated with Bax, HCT116 mitochondria
Chain of purified recombinant Bax (Q07812 whole entry): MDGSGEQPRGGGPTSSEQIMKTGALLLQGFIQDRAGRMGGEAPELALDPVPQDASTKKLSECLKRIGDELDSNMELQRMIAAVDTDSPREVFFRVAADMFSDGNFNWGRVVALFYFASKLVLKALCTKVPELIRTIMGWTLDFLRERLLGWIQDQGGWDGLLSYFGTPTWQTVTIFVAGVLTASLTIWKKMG
Description: (A-B) Humanin peptide prevents STS-induced Bax translocation in vivo. Cos-7 cells were first transfected with GFP-Bax plasmids. After 24 hrs, untagged wild-type or C8P mutant Humanin peptides were introduced into cells using ChariotTM reagent, and 2 h later cells were treated with 1 μM STS. After 4 h, the percentage of cells with translocated Bax was determined (mean±SD; n=3) by confocal microscopy (A) and representative photomicrographs (B). (C) Wild-type or C8P mutant Humanin peptides were introduced into Cos7 cells using ChariotTM reagent. Cytosolic (C) and mitochondria-containing (M) fractions were isolated by differential centrifugation 23 and analyzed by immunoblotting using anti-Bax (top), Hsp60 (middle) (mitochondrial marker), or Tubulin (bottom) (cytosol marker) antibodies. (D) HN or mutant control double-strand siRNAs were transfected into SF268 cells. After 48 h, cells were cultured without (Control) or with 0.1 uM STS. After 24 hr, cells were fractionated and analyzed by immunoblotting as above. (E) Isolated mitochondria were mixed with 400 ng Bax protein, with or without preincubating Bax with 100 uM Humanin or Humanin(C8P) peptides for 10 min. After 3 h at 30° C., mitochondria were centrifuged and the resulting pellets (P) and supernatants (S) were analyzed by immunoblotting using anti-Cytochrome c (top), Hsp60 (middle), and Bax (bottom) antibodies. (F) HN peptide enforces the interaction of Bax TM domain with Bax.TM. Lysates from HEK293T cells expressing Flag-Bax.TM were pretreated with or without Humanin or Humanin(C8P) peptides. Lysates were then mixed in vitro with lysates of HEK293T cells expressing GFP-TM(Bax). Immunoprecipitations were performed with anti-Flag antibody, analyzing lysates and immunoprecipitates (IP) by immunoblotting using monoclonal anti-GFP antibody.
To determine whether Humanin can act directly on Bax, the effects of Humanin on isolated mitochondria were tested. Addition of recombinant purified Bax protein to mitochondria in vitro induces cytochrome c release (Jurgensmeier et al., Proc. Natl. Acad. Sci. USA 95:4997-5002 (1998)). […] Therefore Humanin can directly suppress Bax targeting to mitochondria, without requirement for intact cells.
Cytochrome c release assays were performed as follows. Mitochondria were isolated from HCT116 cells by differential centrifugation as described above. Purified recombinant human Bax protein (400 ng for each sample) was pre-incubated with or without 100 μM synthetic Humanin peptide or mutant Humanin (C8P) peptide for 10 min at 4° C. The untreated or peptide pre-treated Baxprotein samples were then mixed with equal amount of HCT116 mitochondria (in a volume of 40 μl) at 30° C. for 3 hours. […]

Substance | co-immunoprecipitation with Bcl-B [1] | co-immunoprecipitation with Bok [2] | co-immunoprecipitation with Bcl-2 [3] | co-immunoprecipitation with Mcl-1 [4] | co-immunoprecipitation with Bcl-XL [5] | Bax association with mitochondria [6] | cytochrome c release [6]
GFP-HN: Wild-type full-length Humanin fused to Green Fluorescent Protein | did not co-immunoprecipitate | did not co-immunoprecipitate | did not co-immunoprecipitate | did not co-immunoprecipitate | did not co-immunoprecipitate | – | –
Humanin: 24 amino acid polypeptide, cytosolic form of human Humanin (SEQ ID NO:2); used as synthetic peptide or expressed fusion | – | – | – | – | – | suppressed | reduced
